Results from patent US20200385465A1 (SHANGHAI NOVAMAB BIOPHARMACEUTICALS, published 2020).

Tests used:
[1] = molecular target: T1, human full-length CD47 protein (human, UniProt Q08722 19-323); assay: flow cytometry blocking assay, antibody together with hSIRPa (ECD)-Fc-Biotin on CD47 stable cells, SA-PE detection
T1 construct: whole, on cells; also called CD47 stably transferred cells; CD47 on the surface of erythrocyte

[2] = molecular target: T1, human full-length CD47 protein; assay: flow cytometry blocking assay, antibody together with 5 ug hSIRPa (ECD)-Fc-Biotin on hCD47 stable cells, SA-PE detection
[3] = molecular target: T1, human full-length CD47 protein; assay: competition flow cytometry on CD47 stably transfected cells, antibody titrated against 5 µg hSIRPa (ECD)-Fc-Biotin
Protocol: 100 uL was added in each sample, and a negative control (hIgG4) was set at the same time. […] (2) The cells were washed twice with PBS, SA-PE of eBioscience was added. It was incubated for 20 min at 4° C., and the cells were washed twice with PBS and then detected by flow cytometry (BD FACS Calibur), using graphpad prism 6 software for data processing.

[4] = molecular target: T2, CD47 (rat), coated antigen protein (rat, UniProt P97829 19-140, limits assumed); assay: ELISA, coated antigen, anti-HA and alkaline phosphatase detection
T2 construct: also called rat CD47; murine-derived CD47
T2 sequence (looked up): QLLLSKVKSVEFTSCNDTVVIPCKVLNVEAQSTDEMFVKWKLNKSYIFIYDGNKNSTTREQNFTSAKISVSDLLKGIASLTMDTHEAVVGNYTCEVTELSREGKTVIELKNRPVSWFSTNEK
Protocol: (§1) The specificity of the single domain antibody was determined based on the absorption value.

[5] = molecular target: T3, CD47 (mouse), coated antigen protein (mouse, UniProt Q61735 19-140, limits assumed); assay: as above
T3 construct: also called mouse CD47; murine-derived CD47
T3 sequence (looked up): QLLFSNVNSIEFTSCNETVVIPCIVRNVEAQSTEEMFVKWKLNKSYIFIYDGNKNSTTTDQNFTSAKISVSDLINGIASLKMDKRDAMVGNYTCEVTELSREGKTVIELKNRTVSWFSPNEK
Protocol: as §1

negative control antibody
percent of cells positive for SIRPa-biotin (quadrant Q2) in the presence of the antibody [1]: 97.3% | percent of cells positive for SIRPa-biotin (quadrant Q2) in the presence of the antibody at 1ug/ml [2]: 97.2%

B1: control antibody B6H12 (antibody)
chain: EVQLVESGGDLVKPGGSLKLSCAASGFTFSGYGMSWVRQTPDKRLEWVATITSGGTYTYYPDSVKGRFTISRDNAKNTLYLQIDSLKSEDTAIYFCARSLAGNAMDYWGQGTSVTVSSGGGGSGGGGSGGGGSDIVMTQSPATLSVTPGDRVSLSCRASQTISDYLHWYQQKSHESPRLLIKFASQSISGIPSRFSGSGSGSDFTLSINSVEPEDVGVYYCQNGHGFPRTFGGGTKLEIK
IC50 [3]: 12.3 µg/mL

B2: humanized CD47 single domain antibody (Nb1902) expressed from E. coli vector pMECS (VHH)
VHH: QVQLQESGGGLVQPGGSLRLSCAASGYAYTSDCMGWFRQTPGKGLEGVALIYTPGNSTNYADSVKGRFTISQDNSKSTVYLQMNSLRAEDTAMYYCAARRGACSLRLPFFYWGQGTLVTVSS
notes: also called humanized single domain antibody; not shown: C-terminal tag stretch from the pMECS vector (the HA tag used for detection and any other vector-encoded tag)
binding result [4]: no binding | binding result [5]: no binding
